One series has as its system T1, MrUGT78W1.
T1 construct: gene UGT78W1; full length, 469 residues (ORF 1410 bp), pET-32a(+) in E. coli BL21(DE3)pLysS, HisTALON purified, tag cleavage not mentioned; gene on chromosome 7
Kind of series: UDP-Glo glycosyltransferase assay, luminescence. Format: biochemical, Morella rubra. Particulars: 650 μM UDP-Gal, Tris-HCl 100 mM pH 8.5, 30°C. An excerpt:
UDP-Glo glycosyltransferase assay, luminescence on MrUGT78W1

Substrate in the series “purified protein”: O=c1c(O)c(-c2cc(O)c(O)c(O)c2)oc2cc(O)cc(O)c12
Kind of series: purified protein. Particulars: 650 μM UDP-Rha, Tris-HCl 100 mM pH 7.5, 35°C.

Substrate in series [1]: O=c1c(O)c(-c2ccc(O)c(O)c2)oc2cc(O)cc(O)c12
Kind of series: UDP-Glo glycosyltransferase assay, luminescence. Particulars: 650 μM UDP-Rha, Tris-HCl 100 mM pH 7.5, 35°C. Format: biochemical, Morella rubra. An excerpt:
(§1) UDP-Glo glycosyltransferase assay, luminescence on MrUGT78R2

Substrate in series [2]: O=c1c(O)c(-c2ccc(O)cc2)oc2cc(O)cc(O)c12
Nature of the series: UDP-Glo glycosyltransferase assay, luminescence. Format: biochemical, Morella rubra. Particulars: 650 μM UDP-Rha, Tris-HCl 100 mM pH 7.5, 35°C.
From the text: as §1

The text below walks through data of article PMC9437722, “Identification of UDP-rhamnosyltransferases and UDP-galactosyltransferase involved in flavonol glycosylation in Morella rubra” (Horticulture Research, 2022).

For the molecule `O=c1c(O)c(-c2ccc(O)c(O)c2)oc2cc(O)cc(O)c12` [Q, Quercetin], the Km in the series on MrUGT78W1 is 93.5 ± 2.69 µM.
For `O=c1c(O)c(-c2ccc(O)cc2)oc2cc(O)cc(O)c12` [K, Kaempferol], the Km with MrUGT78W1 worked out at 50 ± 4.63 µM.
Still for that read-out and setting: the result for `O=c1c(O)c(-c2cc(O)c(O)c(O)c2)oc2cc(O)cc(O)c12` [M, Myricetin] reads 13.7 ± 0.92 µM.

B1: MrUGT78R2 (Morella rubra) (protein)
chain: MTQSSQDQHVAVLAFPLGCHPWPLLNLACKLACAAPNVRFSFFNTPKSNSKLFSTSQAEPPQNLKAYDVADGVPEGHVFTPGNPVEELELFLNAAPESFRNGMDMAVAETGREISCLLTDAFLVFASEMALDMHAKWVPFWVPAPHSLSAHMYSDLIYETYTNVCGGGEDGINTSDGDNYGTGTLGGIKPIDKTLDVIPGLSIMRFRDLPQQLLLGDFNSSLFSSALYRIGAVLPQASAVIMNSFQELNPATLTDDLKSKFQNLLYVGFLTLTLPPPPPPPSHSDATGCLPWLDDQKPTSVAYISFGTVSAVPPHEFVALAEALEASHVPFLWSLRDNFKEILPTGFLQRTRTQGKIVPWAPQAHVLAHKAVGVYVTHCGYNSVFESVVGEVPMICRPILGDNMFNGRMVEDVWGIGVGVEGGVFTKNGMLKSLEVVLGEEHGKRMREKIRDIKDLVVKAAGPTGIASKDFNTLVEVISK
notes: full length, 480 residues (ORF 1443 bp), pET-32a(+) in E. coli BL21(DE3)pLysS, HisTALON purified, tag cleavage not mentioned
On to B1, for which the Km was determined as 66.78 ± 3.56 µM in the series “purified protein”, 61.81 ± 8.74 µM in series [1] and 58.11 ± 5.52 µM in series [2]. Further, the kcat/Km in “purified protein” amounted to 34700 M⁻¹ s⁻¹; in series [1], 45900 ± 4500 M⁻¹ s⁻¹; in series [2], 37800 ± 2500 M⁻¹ s⁻¹.
